Experiments:
[1] = biological target: RNA polymerase (Escherichia coli) (UniProt P0A7Z4); conditions: cited from earlier work
[2] = biological target: DNA topoisomerase I (TopoI) of Streptococcus pneumoniae (S. pneumoniae); assay: SPR; Biacore X100; about 3000 RU of TopoI immobilised on a CM5 chip by amine coupling; RNAP holoenzyme 7.5-240 nM flowed at 50 ul/min; 25 C; 20 mM Tris HCl pH 7.5, 100 mM NaCl, 10 mM MgCl2, 0.1 mM EDTA, 1 mM DTT, 0.005% Tween-20, 5% glycerol; regeneration with 1 M NaCl; kinetic fit; two independent assays
[3] = biological target: DNA topoisomerase I (TopoI) of Streptococcus pneumoniae (S. pneumoniae); assay: SPR; TopoI immobilised on a new CM5 chip; RNAP holoenzyme 240 nM incubated with 1 x MIC seconeolitsine (SCN)
[4] = biological target: DNA topoisomerase I (TopoI) of Streptococcus pneumoniae (S. pneumoniae); assay: SPR; TopoI immobilised on a new CM5 chip; RNAP holoenzyme 240 nM incubated with 1 x MIC rifampicin (Rif)
[5] = biological target: DNA topoisomerase I (TopoI) of Streptococcus pneumoniae (S. pneumoniae); assay: SPR; TopoI immobilised on a new CM5 chip; RNAP holoenzyme 240 nM injected alone (no drug)

Chain of DNA topoisomerase I (P06612 whole entry): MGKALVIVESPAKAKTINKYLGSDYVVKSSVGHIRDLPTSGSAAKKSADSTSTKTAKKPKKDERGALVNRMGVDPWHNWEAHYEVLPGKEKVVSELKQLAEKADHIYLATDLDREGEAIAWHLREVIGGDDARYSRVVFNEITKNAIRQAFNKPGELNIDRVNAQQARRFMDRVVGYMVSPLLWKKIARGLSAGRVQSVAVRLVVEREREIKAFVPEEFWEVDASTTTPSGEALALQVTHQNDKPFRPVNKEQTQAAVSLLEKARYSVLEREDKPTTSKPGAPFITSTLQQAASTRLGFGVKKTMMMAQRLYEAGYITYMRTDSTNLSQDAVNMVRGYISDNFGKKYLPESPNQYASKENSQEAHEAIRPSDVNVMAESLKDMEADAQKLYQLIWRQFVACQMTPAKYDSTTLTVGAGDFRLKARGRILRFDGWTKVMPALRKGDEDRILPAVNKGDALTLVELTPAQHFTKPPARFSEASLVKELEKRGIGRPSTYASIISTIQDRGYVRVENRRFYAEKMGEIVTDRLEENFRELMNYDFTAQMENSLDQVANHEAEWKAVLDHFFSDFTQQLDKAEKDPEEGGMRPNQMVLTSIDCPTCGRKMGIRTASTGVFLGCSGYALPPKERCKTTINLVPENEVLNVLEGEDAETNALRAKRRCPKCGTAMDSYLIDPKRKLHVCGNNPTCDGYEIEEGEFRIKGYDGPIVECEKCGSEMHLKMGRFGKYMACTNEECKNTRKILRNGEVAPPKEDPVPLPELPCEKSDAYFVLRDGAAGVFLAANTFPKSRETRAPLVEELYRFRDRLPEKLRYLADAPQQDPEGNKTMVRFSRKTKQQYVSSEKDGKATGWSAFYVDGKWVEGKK

## DNA topoisomerase I (from UniProt P06612)
[1]
  Kd: 93 nM

## RNA polymerase (RNAP) holoenzyme of Streptococcus pneumoniae (from UniProt P66708 1-311; A0A0H2ZQA1 1-369) (complex)
[2]
  Kd: 27 nM
[3]
  SPR response with SCN: 40.9 RU
[4]
  SPR response with Rif: 122 RU
[5]
  SPR response (no drug): 173 RU

Reference: article PMC8115823
